Reference: publication PMC5695019, “Expression, Purification, and Characterization of (R)-Sulfolactate Dehydrogenase (ComC) from the Rumen Methanogen Methanobrevibacter millerae SM9” (Archaea, 2017)

How the values were obtained:
purified protein [1] = substrate: NC(=O)C1=CN([C@@H]2O[C@H](COP(=O)(O)OP(=O)(O)OC[C@H]3O[C@@H](n4cnc5c(N)ncnc54)[C@H](O)[C@@H]3O)[C@@H](O)[C@H]2O)C=CC1; experiment: purified protein; format: biochemical, Methanobrevibacter millerae; conditions: reduction reaction, 500 μM sulfopyruvate, 400 mM KCl, 50 mM BTP pH 6.5, 37°C, varied: cofactor
purified protein [2] = substrate: O=C(O)C(=O)CS(=O)(=O)O; experiment: purified protein; format: biochemical, Methanobrevibacter millerae; conditions: reduction reaction, 400 μM NADH, 400 mM KCl, 50 mM BTP pH 6.5, 37°C

B1: ComC ((R)-sulfolactate dehydrogenase) (Methanobrevibacter millerae) (protein)
chain: MKIMKDNEIALVKEILKKLGASEEDCELVAEATIDADLKGFTSHGLGRFPQYLISIEAGTINLEDNITIEKETPAIALINGNSGFGQAVSYKAMQIAIKKAKEVGIGCVGVHNTNHFGVTGFYSDLALRENVIGMVIANTDPAIAPLGGKEALIGTNPIAIGIPSETYITVDMATSVTARGKIIESRRKGLDLPEGWALDKDGNPTTDPEAALDGGSILPFGGFKGYALALMVEILTGPLVQAGYGTGVTGTASPTKDCTKGDLYIAIDPSKFGDFGDFVANTEDFVSQVRATGETVAIPGDLEVKRIAEAEENGIEIDAKLYEQLKGICDDLDIDIDSYLED
notes: full-length, His-tagged (pET151D TOPO, E. coli Rosetta 2), tag kept, 376 residues and 40104 Da with tag; dimer (75 kDa by gel filtration); primers encode N-terminus MKIMKDNE and C-terminus DIDSYLED
- Km (purified protein [1]): 55.1 ± 7.6 µM
- Vmax (purified protein [1]): 73.1 µmol/min/mg
- kcat (purified protein [1]): 48.9 ± 2.2 s⁻¹
- Km (purified protein [2]): 196 ± 71 µM
- Vmax (purified protein [2]): 93.9 µmol/min/mg
- kcat (purified protein [2]): 62.8 ± 9.7 s⁻¹
